Assays:
[1] = substrate: CC(Cc1ccc(O)cc1)NCC(O)c1cc(O)cc(O)c1; test: cells, lysate or membranes named; conditions: HEK293, 2 min, Michaelis–Menten fit, pH 7.4
[2] = substrate: CCCC[N+]1(C)[C@@H]2C[C@@H](OC(=O)[C@H](CO)c3ccccc3)C[C@H]1[C@@H]1O[C@@H]12; test: Uptake in HEK293 cells stably overexpressing human OCT2; format: in vitro ADME; conditions: other: OCT2-mediated uptake, HEK293, 2 min, Michaelis–Menten fit; pH 7.4
Experimental: (§1) The total uptake is shown for the overexpressing and control cells (left hand side). OCT2-mediated uptake (right hand side) was calculated by subtracting the uptake of control cells (pcDNA5) from the uptake of OCT2-overexpressing cells. The means and standard errors of the means are shown for at least three independent experiments.
(§2) Cells were cultured in Dulbecco’s Modified Eagle’s Medium (DMEM) supplemented with 10% FBS, 100 U/mL penicillin, and 100 µg/mL streptomycin at 37 °C and 5% CO2. Cells were passaged twice a week.
(§3) At 48 h prior to the experiment, 6 × 10^5 cells were seeded per well in 12-well plates pre-coated with poly-D-lysine.
(§4) Cellular uptake experiments were performed at 37 °C and pH 7.4 using Hanks’ Buffered Salt Solution (HBSS) supplemented with 10 mM HEPES (referred to as HBSS+ in the following). Cells were washed with 1 mL pre-warmed (37 °C) HBSS+ and uptake was initiated by adding 400 µL of pre-warmed HBSS+ containing the substrate. Uptake was allowed for exactly 2 min and stopped by adding 2 mL ice-cold HBSS+. Cells were washed twice with 2 mL ice-cold HBSS+ then lysed with 80% acetonitrile supplemented with internal standard. The intracellularly accumulated substrate concentrations were measured using LC-MS/MS as described in the following and normalized to the amount of total protein in the samples as measured using the bicinchoninic acid assay [49].
(§5) Intracellular substrate concentrations were quantified using LC-MS/MS. […] The pellet was reconstituted with 200 µL 0.1% formic acid and between 5 and 10 µL was injected into the LC-MS/MS system (Table S2).
(§6) An API4000 QTRAP tandem mass spectrometer with ESI interface (AB SCIEX, Darmstadt, Germany) coupled to a Shimadzu Nexera X2 UHPLC system with LC 30AD pumps and SiL 30AC autosampler (Shimadzu, Duisburg, Germany) was used for analysis.
(§7) Intrinsic clearance CLint was calculated by dividing vmax by KM for each experiment.

[3] = substrate: O=C(O[C@H]1C[C@H]2CC[C@@H](C1)[N+]21CCCC1)C(O)(c1ccccc1)c1ccccc1; test: as above; format: in vitro ADME; conditions: other: OCT2-mediated uptake, HEK293, 2 min, Michaelis–Menten fit; pH 7.4
Experimental: as §1, §2, §3, §4, §5, §6, §7

[4] = substrate: CN(C)C(=N)N=C(N)N; test: Uptake in HEK293 cells stably overexpressing mouse OCT1; format: in vitro ADME; conditions: other: OCT1-mediated uptake, HEK293, 2 min, Michaelis–Menten fit; pH 7.4
Experimental: (§8) The total uptake is shown for the overexpressing and control cells (left hand side). OCT1-mediated uptake (right hand side) was calculated by subtracting the uptake of control cells (pcDNA5) from the uptake of OCT1-overexpressing cells. The means and standard errors of the means are shown for at least three independent experiments.
as §3, §4, §5, §6
(§9) Intrinsic clearance CLint was calculated by dividing vmax by KM for each experiment. Kinetic parameters were compared between OCT1 orthologs using an ANOVA followed by Tukey’s honestly significant difference post hoc comparisons in SPSS Statistics version 28 (SPSS Inc., IBM, Chicago, IL, USA).

[5] = substrate: CCCC[N+]1(C)[C@@H]2C[C@@H](OC(=O)[C@H](CO)c3ccccc3)C[C@H]1[C@@H]1O[C@@H]12; test: as above; format: in vitro ADME; conditions: other: OCT1-mediated uptake, HEK293, 2 min, Michaelis–Menten fit; pH 7.4
Experimental: as §8, §3, §4, §5, §6, §9

[6] = substrate: O=C(O[C@H]1C[C@H]2CC[C@@H](C1)[N+]21CCCC1)C(O)(c1ccccc1)c1ccccc1; test: as above; format: in vitro ADME; conditions: other: OCT1-mediated uptake, HEK293, 2 min, Michaelis–Menten fit; pH 7.4
Experimental: as §8, §3, §4, §5, §6, §9

Protein	Km ([1]; other: OCT2-mediated uptake) [µM]	Km [2] [µM]	Vmax [2] [µmol/min/mg]	Vmax/Km [2] [µL/min/mg]	Km [3] [µM]	Vmax [3] [µmol/min/mg]	Vmax/Km [3] [µL/min/mg]	Km [4] [µM]	Vmax [4] [µmol/min/mg]	Vmax/Km [4] [µL/min/mg]	Km [5] [µM]	Vmax [5] [µmol/min/mg]	Vmax/Km [5] [µL/min/mg]	Km [6] [µM]	Vmax [6] [µmol/min/mg]	Vmax/Km [6] [µL/min/mg]	Km ([1]; other: OCT1-mediated uptake) [µM]
human OCT2 (Homo sapiens) (protein, expressed in transfected cells; host or cells: HEK293 (Flp-In system)) MPTTVDDVLEHGGEFHFFQKQMFFLLALLSATFAPIYVGIVFLGFTPDHRCRSPGVAELSLRCGWSPAEELNYTVPGPGPAGEASPRQCRRYEVDWNQSTFDCVDPLASLDTNRSRLPLGPCRDGWVYETPGSSIVTEFNLVCANSWMLDLFQSSVNVGFFIGSMSIGYIADRFGRKLCLLTTVLINAAAGVLMAISPTYTWMLIFRLIQGLVSKAGWLIGYILITEFVGRRYRRTVGIFYQVAYTVGLLVLAGVAYALPHWRWLQFTVSLPNFFFLLYYWCIPESPRWLISQNKNAEAMRIIKHIAKKNGKSLPASLQRLRLEEETGKKLNPSFLDLVRTPQIRKHTMILMYNWFTSSVLYQGLIMHMGLAGDNIYLDFFYSALVEFPAAFMIILTIDRIGRRYPWAASNMVAGAACLASVFIPGDLQWLKIIISCLGRMGITMAYEIVCLVNAELYPTFIRNLGVHICSSMCDIGGIITPFLVYRLTNIWLELPLMVFGVLGLVAGGLVLLLPETKGKALPETIEEAENMQRPRKNKEKMIYLQVQKLDIPLN	8.81 ± 0.55	7.62 ± 0.85	0.000616	81.6	0.49 ± 0.15	0.000119	278										
mouse OCT1 (Mus musculus) (protein, expressed in transfected cells; host or cells: HEK293 (Flp-In system)) MPTVDDVLEHVGEFGWFQKQAFLLLCLISASLAPIYVGIVFLGFTPDHHCRSPGVAELSQRCGWSPAEELNYTVPGLGSAGEASFLSQCMKYEVDWNQSTLDCVDPLSSLAANRSHLPLSPCEHGWVYDTPGSSIVTEFNLVCGDAWKVDLFQSCVNLGFFLGSLVVGYIADRFGRKLCLLVTTLVTSLSGVLTAVAPDYTSMLLFRLLQGMVSKGSWVSGYTLITEFVGSGYRRTTAILYQVAFTVGLVGLAGVAYAIPDWRWLQLAVSLPTFLFLLYYWFVPESPRWLLSQKRTTQAVRIMEQIAQKNRKVPPADLKMMCLEEDASERRSPSFADLFRTPSLRKHTLILMYLWFSCAVLYQGLIMHVGATGANLYLDFFYSSLVEFPAAFIILVTIDRIGRIYPIAASNLVAGAACLLMIFIPHELHWLNVTLACLGRMGATIVLQMVCLVNAELYPTFIRNLGMMVCSALCDLGGIFTPFMVFRLMEVWQALPLILFGVLGLSAGAVTLLLPETKGVALPETIEEAENLGRRKSKAKENTIYLQVQTGKSPHT								298 ± 46.9	0.0109 ± 0.00125	38.7	6.60 ± 1.13	0.000778	131	1.92 ± 0.85	0.000255	180	10.7 ± 1.09
